Where a chain is given by its changes, count along the chain named.

The chains are these.
B1: PRT-535 (protein)
chain: MANQEIRYSGDSEWANKKVWVYGITPPEEKAWFYSTYYLPWKKEYGWYDCNKRNPTADGMMCWAATASNLMHWWIAQNKEYIDLYGDKYKGPDKINFNGEQMFDVKEYIDPLDKPQESDIFQCFIDKAFADLSTKHEAGKGDEGINWFIHGIIPSYPAHGPTPVKLRYPYNPAGYFKDVFPRGDGVVLLGNNGDFKELGKERFNETIKDALANKKGIGLSIGPVNVRSSHVVTMWGAEFDENGDVSYIYMADNNDRWGVGCIRYQIVYVEGGTYTCYKTEIIGSDRPIPINRLVTLELGEEYWKQTNLEHHHHHH
B2: PRT-537 (protein)
chain: B1 chain with G10S, K30G, T66S, M71L, A128S, E143A, Y156S, M234I, V269E, G283P
B3: PRT-548 (protein)
chain: MANQEIRYSEETPKTITSVWTKGVTPPTDFIKNEDVLHAPYIANQGWYDITKTFNGKDDLLCGAATAGNMLHWWFDQNKEEIENYLKKHPEKQKINFNGEQMFDVKEAIDTKDSQTDSALFEYFKDKAFPYLSTKHLGVFPDHVIDMFINGYRLSLTNHGPTPVKRGTKDPRGGIFDAVFTRGDQTKLLTARHDFKEKTLNEISDLIKQELTEGKALGLSHTYANVRINHVINLWGADFNSEGNLEAIYVTDSDSNASIGMKKYYVGVNAAGKVAISAKEIEGDNIGAQVLGLFTLSTGQDIWEQTNLEHHHHHH
B4: PRT-591 (protein)
chain: B3 chain with K14S, K32Q, E81Q, E83K, T186S, A191S, S241A, A270S, E304N
B5: PRT-593 (protein)
chain: B3 chain with K14S, K32Q, E81Q, S114H, T186S, A191S, S241A, A270S, E304N
B6: PRT-560 (protein)
chain: B3 chain with K32Y, E81Q, N84R, G167Q, T186S, A191S, N201K, N240D, S241A, A270S
B7: PRT-569 (protein)
chain: MANQEIRYSKATPSHITSVWTKGVTPPEQFIYNEDVLHAPYIANQGWYDITKTFNGKDDLLCGAATAGNMLHWWFDQNKEQIENYLKKHPEKQKINFNGEQMFDVKEAIDTKDSQTNSALFSYFKDKAFPYLSTKHLGVFPDHVIDMFINGYRLSLTNHGPTPVKEQTKDPRGGIFDAVFTRGDQSKLLTSRHDFKEKTLNEISQLIKQELTEGKALGLSHTYANVRINHVINLWGADFNAEGNLEAIYVTDSDSNASIGMKKYYVGVNSAGKVAISAKEIEGDNIGAQVLGLFTLSTGQDIWQQTNLEHHHHHH
B8: PRT-41 (protein)
chain: MANQEIRYSEVTPYHVTSVWTKGVTPPANFTQGEDVFHAPYVANQGWYDITKTFNGKDDLLCGAATAGNMLHWWFDQNKDYIDRYLEEHPEKQKINFNGEQMFDVKEAIDTKNSQLDSKLFEYFKEKAFPYLSTKHLGVFPDLVLDMFINGYRLSLTNHGPTPVKEGSKDPRGGIFDAVFTRGDQSKLLTSRHDFKEKNLKEISDLIKKELTEGKALGLSHTYANVRINHVINLWGADFDSNGNLKAIYVTDSDSNASIGMKKYFVGVNSAGKVAISAKEIKEDNIGAQVLGLFTLSTGQDSWNQTN
B9: PRT-42 (protein)
chain: B8 chain with Y81Q, S114D, L145I, I175F
B10: PRT-47 (protein)
chain: B8 chain with T51N, K57G, Y81Q, E87K, Q93A, S114D, L116T, D117N, I175F, I259V
B11: PRT-43 (protein)
chain: B8 chain with Y81Q, S114D, L116T, L145I, F195L
B12: PRT-46 (protein)
chain: B8 chain with Y81Q, Q93A, S114D, I175F, K263R
B13: PRT-45 (protein)
chain: B8 chain with K57G, D80E, Y81Q, L116T, K201E
B14: PRT-44 (protein)
chain: B8 chain with K57G, Y81Q, L116T, I175F, A178D
B15: PRT-279 (protein)
chain: MVTSVWTKGVTPPTDFIYGEDVLHAPYKAGQGWYDITKLFNGKDNLLCGAATAGNMLHWWFDQNKEQIENYLKKHPEKQKIIFNNQELFDLKAAIDTKDSQLDSKLFEYFLEKAFPYLSTKHLGVFPDHVIDMFINGYRLSLTNHGPTPVKRGSKDKRGGIFDAVFTRGVQSKLLTNRHDLKNKTLKEISDLIKQELTEGKALGISHTYANVRINHVINLWGADFDAEGNLEAIAVTDSDTNASIGMKKYFVGVNSSGKVAISAKEIEEDNIGAQVLGLFTLSTGQDIWNQTN
B16: PRT-48 (protein)
chain: MANQEIRYSEVTPYHVTSVWTKGVTPPANFTQGEDVFHAPYKANQGWYDINKTFNGGDDLLCGAATAGNMLHWWFDQNKDYIDRYLEEHPEKQKINFNGEQMFDVKEAIDTKNNQTDSKLFEYFKEKAFPYLSTKHLGVFPDRVIDMFINGYRLSLTNHGPTPVKEGSKDPRGGFFDDVFTRGDQSKLLTSRHDFKEKNLKEISDLIKKELKEGKALGLSHTYANVRINHVINLWGADFDSNGNLKAIYVTDSDSNASVGMKKYRVGVNSAGKVAISAKEIKEDNIGAQVLGLFTLSTGQDSWNQTN
B17: PRT-287 (protein)
chain: MVTSVWTKGVTPPAKFTQGEDVFHAPYVANQGWYDITKEFNGKDDLLCGAATAGNMLHWWFDQNKEKIEAYLKKHPDKQKIMFGDQELLDVRKVINTKGDQTNSELFNYFRDKAFPNLSARRIGVMPDLVLDMFINGYYLNVYKTQTTDVNRTYQEKDRRGGIFDAVFTRGDQSKLLTSRHDFKEKNLKEISDLIKKELTEGKALGLSHTYANVRIGHVINLWGADFDSNGNLKAIYVTDSDSNASIGMKKYGVGVNSAGKVAISAKEIKEDNIGAQVLGLFTLSTGQDSWNQTN
B18: PRT-540 (protein)
chain: MANQEIRYSKNENPNVTIKWVHGIGEPTQAEKEKIEFYWYETNTTKFFNNRKVTHLGDSNQCWAKTASNMLHWWFVQNKENINKYIEKKNITGKINFNGEQMFDVKEGIDDNQEKEKSYIANTFRTKKAHNLSTKHKGDYIINGLAWYLYGLNNFKNAHGPTPVKKKPKFYGPALFKDVFNRGDGNTPIIEETDFKEYTKKEFEDTLSEALDSKKAIGINIYGSNVDYGHAITLWGAAFDEDENIIAIYVVDNNFKFENRIFPYGIWYEKEGRPYLFNYEINSFVKNRYVGEITTLDKGEAQWQETNLEHHHHHH

This series deals with pooled human IgG.
Protein B1 had an Enzyme Activity Endpoint Assay: Fab′2 of 6 ng/µL, an Enzyme Activity Endpoint Assay: Fc of 0 ng/µL, an Enzyme Activity Endpoint Assay: IgG of 1530 ng/µL and an Enzyme Activity Endpoint Assay: scIgG of 0 ng/µL.

In the case of B2, the Enzyme Activity Endpoint Assay: Fab′2 turned out to be 0 ng/µL, the Enzyme Activity Endpoint Assay: Fc worked out at 0 ng/µL, the Enzyme Activity Endpoint Assay: IgG is 1000 ng/µL and the Enzyme Activity Endpoint Assay: scIgG was determined as 0 ng/µL.

B3 yielded an Enzyme Activity Endpoint Assay: Fab′2 of 727 ng/µL, an Enzyme Activity Endpoint Assay: Fc of 458 ng/µL, an Enzyme Activity Endpoint Assay: IgG of 0 ng/µL and an Enzyme Activity Endpoint Assay: scIgG of 0 ng/µL.

B4 showed an Enzyme Activity Endpoint Assay: Fab′2 of 0 ng/µL, an Enzyme Activity Endpoint Assay: Fc of 34 ng/µL, an Enzyme Activity Endpoint Assay: IgG of 671 ng/µL and an Enzyme Activity Endpoint Assay: scIgG of 0 ng/µL.

B5 had an Enzyme Activity Endpoint Assay: Fab′2 of 797 ng/µL, an Enzyme Activity Endpoint Assay: Fc of 396 ng/µL, an Enzyme Activity Endpoint Assay: IgG of 0 ng/µL and an Enzyme Activity Endpoint Assay: scIgG of 0 ng/µL.

B6 showed an Enzyme Activity Endpoint Assay: Fab′2 of 210 ng/µL, an Enzyme Activity Endpoint Assay: Fc of 233 ng/µL, an Enzyme Activity Endpoint Assay: IgG of 41 ng/µL and an Enzyme Activity Endpoint Assay: scIgG of 312 ng/µL.

B7 gave an Enzyme Activity Endpoint Assay: Fab′2 of 723 ng/µL, an Enzyme Activity Endpoint Assay: Fc of 294 ng/µL, an Enzyme Activity Endpoint Assay: IgG of 0 ng/µL and an Enzyme Activity Endpoint Assay: scIgG of 0 ng/µL.

As to B8, the Enzyme Activity Endpoint Assay: Fab′2 stood at 24 ng/µL, the Enzyme Activity Endpoint Assay: Fc is 94 ng/µL, the Enzyme Activity Endpoint Assay: IgG was determined as 19 ng/µL and the Enzyme Activity Endpoint Assay: scIgG turned out to be 50 ng/µL.

Regarding B9, the Enzyme Activity Endpoint Assay: Fab′2 stood at 0 ng/µL, the Enzyme Activity Endpoint Assay: Fc is 54 ng/µL, the Enzyme Activity Endpoint Assay: IgG was found to be 26 ng/µL and the Enzyme Activity Endpoint Assay: scIgG came to 53 ng/µL.

The protein B10 gave an Enzyme Activity Endpoint Assay: Fab′2 of 0 ng/µL, an Enzyme Activity Endpoint Assay: Fc of 5 ng/µL, an Enzyme Activity Endpoint Assay: IgG of 132 ng/µL and an Enzyme Activity Endpoint Assay: scIgG of 0 ng/µL.

B11 yielded an Enzyme Activity Endpoint Assay: Fab′2 of 23 ng/µL, an Enzyme Activity Endpoint Assay: Fc of 89 ng/µL, an Enzyme Activity Endpoint Assay: IgG of 13 ng/µL and an Enzyme Activity Endpoint Assay: scIgG of 32 ng/µL.

Consider B12, for which the Enzyme Activity Endpoint Assay: Fab′2 is 20 ng/µL, the Enzyme Activity Endpoint Assay: Fc worked out at 101 ng/µL, the Enzyme Activity Endpoint Assay: IgG came to 15 ng/µL and the Enzyme Activity Endpoint Assay: scIgG stood at 39 ng/µL.

In turn, B13 showed an Enzyme Activity Endpoint Assay: Fab′2 of 3 ng/µL, an Enzyme Activity Endpoint Assay: Fc of 76 ng/µL, an Enzyme Activity Endpoint Assay: IgG of 8 ng/µL and an Enzyme Activity Endpoint Assay: scIgG of 67 ng/µL.

In turn, B14 yielded an Enzyme Activity Endpoint Assay: Fab′2 of 3 ng/µL, an Enzyme Activity Endpoint Assay: Fc of 78 ng/µL, an Enzyme Activity Endpoint Assay: IgG of 14 ng/µL and an Enzyme Activity Endpoint Assay: scIgG of 60 ng/µL.

In turn, B15 showed an Enzyme Activity Endpoint Assay: Fab′2 of 574 ng/µL, an Enzyme Activity Endpoint Assay: Fc of 359 ng/µL, an Enzyme Activity Endpoint Assay: IgG of 48 ng/µL and an Enzyme Activity Endpoint Assay: scIgG of 0 ng/µL.

For B16, the Enzyme Activity Endpoint Assay: Fab′2 is 0 ng/µL, the Enzyme Activity Endpoint Assay: Fc came to 5 ng/µL, the Enzyme Activity Endpoint Assay: IgG stood at 141 ng/µL and the Enzyme Activity Endpoint Assay: scIgG came to 0 ng/µL.

B17 gave an Enzyme Activity Endpoint Assay: Fab′2 of 700 ng/µL, an Enzyme Activity Endpoint Assay: Fc of 392 ng/µL, an Enzyme Activity Endpoint Assay: IgG of 0 ng/µL and an Enzyme Activity Endpoint Assay: scIgG of 0 ng/µL.

B18 displayed an Enzyme Activity Endpoint Assay: Fab′2 of 0 ng/µL, an Enzyme Activity Endpoint Assay: Fc of 0 ng/µL, an Enzyme Activity Endpoint Assay: IgG of 1490 ng/µL and an Enzyme Activity Endpoint Assay: scIgG of 0 ng/µL.

These data come from US20250027068.
